Results taken from the supplement of paper PMC9170038.

Tested on: MS2 coat protein
Test: apparent KD of MS2 coat protein; designed switch direction (-1 OFF switch, 1 ON switch): -1; higher = weaker reporter binding
How it was run: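 Three titration conditions were used: no input, 200 uM small-molecule ligand, and an oligonucleotide input. In each, SNAP-549-labelled MS2 coat protein was raised from 0.7 or 1.5 nM, doubling, to 3 µM over designed RNA switches transcribed on Illumina chips by stalled E. coli RNA polymerase. Curve fits of normalised cluster fluorescence gave values whose per-design median over clusters is the apparent KD.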

[1] = Eterna round: R95, input ligand: FMN 200 uM
[2] = Eterna round: R95, input ligand: microRNA oligo, concentration not stated
[3] = Eterna round: R95, input ligand: none
[4] = input ligand: microRNA oligo, concentration not stated

Sequence: AGAUGGCGAGGAUAUACAUGAGGAUCACCCAUGUGAAUAAUAAUAGUGAGGAAGAAAAGUAGAAGGCGCUGUCA [Mat - Exclusion 3 - Mod of Salish D34] (puzzle: Exclusion 3)
- apparent KD of MS2 coat protein [1]: 357 nM
- apparent KD of MS2 coat protein [2]: 42.1 nM
- apparent KD of MS2 coat protein [3]: 41.2 nM

Sequence: AGAUGUACCUAGGAUAUCCGUCUUAUUGGACUAGGAGAAGGAGGUACAUGAGGAUCACCCAUGUAUGACUCCUG [Veisteer] (puzzle: Exclusion 6)
- apparent KD of MS2 coat protein [2]: 9.08 nM

Sequence: AGAUGUAGAUACCGAUCCUACAUGAGGAUCACCCAUGUAGCUAGACGUGCUCGCGUCGCUCGUCAGACUACCAGUAG [salish99_TOv1_r3_089] (puzzle: Sensor v3, turn-off variant 1)
- apparent KD of MS2 coat protein [1]: 267 nM
- apparent KD of MS2 coat protein [2]: 199 nM
- apparent KD of MS2 coat protein [3]: 259 nM

Sequence: AGAUGUAGAUACCGGUCCUACAUGAGGAUCACCCAUGUAGCUAGACGUGCGGGCGGCGCUCGUCGGACUACCAGUAG [salish99_TOv1_r3_098] (puzzle: Sensor v3, turn-off variant 1)
- apparent KD of MS2 coat protein [1]: 39.4 nM
- apparent KD of MS2 coat protein [2]: 42.8 nM
- apparent KD of MS2 coat protein [3]: 59.7 nM

Sequence: AGCAAGCUUUUAAGAUCCUACAUGAGGAUCACCCAUGUGCUCGUCUUGUAACGUACUGUGACGAAAGUCACGGUACG [JL TOV1 3.31] (Eterna round: R97, puzzle: Sensor, turn-off variant 1)
- apparent KD of MS2 coat protein (input ligand: FMN 200 uM): 374 nM
- apparent KD of MS2 coat protein (input ligand: none): 506 nM

Sequence: AGCAAGUCAGGAUAUCAAAGCAGCUAUAUGCUGCCCGGGCUUGAGAAGGGACUUGAGGAUCACCCAAGUGAUAG [Titiar] (Eterna round: R97, puzzle: Exclusion 4)
- apparent KD of MS2 coat protein (input ligand: FMN 200 uM): 101 nM
- apparent KD of MS2 coat protein (input ligand: none): 25.1 nM

Sequence: AGCAUGCGGAAGGAUAUUUGGAGUAGCGACUCGGGAGAAGGUCUGACAUGAGGAUCACCCAUGUGGAGAGACUG [Eternabot (L1) Solution 59] (Eterna round: R97, puzzle: Exclusion 6)
- apparent KD of MS2 coat protein (input ligand: FMN 200 uM): 39.2 nM
- apparent KD of MS2 coat protein (input ligand: none): 20.9 nM

Sequence: AGCAUGGUAGGAUAUACGGAGCAUUAGGGUUUGUUAUGUGGACAUGAGGAUCACCCAUGUAGAAGGGCCGUGCA [Mat - Exclusion 2 - Mod of JL - D82] (puzzle: Exclusion 2)
- apparent KD of MS2 coat protein [2]: 32.6 nM

Sequence: AGCCAAGCAGGAUAUAUCCGGGAUAACAUGAGGAUCACCCAUGUGACCGAUUGAUAUCCUAUAGAAGGGCUUGGGA [Mod of ViennaUCT 23 - Jieux - Exclusion 5] (Eterna round: R97, puzzle: Exclusion 5)
- apparent KD of MS2 coat protein (input ligand: FMN 200 uM): 135 nM
- apparent KD of MS2 coat protein (input ligand: none): 43.5 nM

Sequence: AGCCAAGCAGGAUAUGCCCGUAAUAACAUGAGGAUCACCCAUGUGACCGAUUUAUGUUCUGCAGAAGGGCUUGGAA [LRO-Excl5-12-mod of Erxesoan mod by Eli Fisker] (Eterna round: R97, puzzle: Exclusion 5)
- apparent KD of MS2 coat protein (input ligand: FMN 200 uM): 91.3 nM
- apparent KD of MS2 coat protein (input ligand: none): 24.8 nM

Sequence: AGCCACAGAGGAUAUACAUACAUCCAGUAGCGGAUAUCGCUACAUGAGGAUCACCCAUGUAGAAGGCUGUGGCA [Omei Ex2 BD B22] (Eterna round: R97, puzzle: Exclusion 2)
- apparent KD of MS2 coat protein (input ligand: FMN 200 uM): 148 nM
- apparent KD of MS2 coat protein (input ligand: none): 611 nM

Sequence: AGCCCUGCAGGAUAUGCCCGGGAUAACAUGAGGAUCACCCAUGUGACCGAUUGUUAUCCUGCAGAAGGGCAUGGGA [JL-EX5-4.12 ViennaUCT mod] (Eterna round: R97, puzzle: Exclusion 5)
- apparent KD of MS2 coat protein (input ligand: FMN 200 uM): 172 nM
- apparent KD of MS2 coat protein (input ligand: none): 161 nM

Sequence: AGCCCUGCAGGAUAUGUCGAGGAUAACAUGAGGAUCACCCAUGUGACCGAUUGUUAGACUGCAGAAGGGCAUGGGA [salish99_ex5_r4_304] (Eterna round: R97, puzzle: Exclusion 5)
- apparent KD of MS2 coat protein (input ligand: FMN 200 uM): 278 nM
- apparent KD of MS2 coat protein (input ligand: none): 70.6 nM

Sequence: AGCCUACAUGAGGAUCACCCAUGUCAGGAUAUCUCGCGACGUGUCGGGUUCACGUUGCAGAGAAGGGACUCGGG [Estibera] (puzzle: Exclusion 1)
- apparent KD of MS2 coat protein [2]: 46.4 nM

Sequence: AGCGAAAAGACAGGAUAUGAGAAUAGAUAGAGCUCAGAAGGGUCACAUGAGGAUCACCCAUGUAAAGUCUUGAGGCUGCGUGGU [Prohibition 11 - Jieux - Exclusion NG 1] (Eterna round: R96, puzzle: Exclusion NG 1)
- apparent KD of MS2 coat protein (input ligand: FMN 200 uM): 184 nM
- apparent KD of MS2 coat protein [4]: 43.4 nM
- apparent KD of MS2 coat protein (input ligand: none): 55.6 nM

Sequence: AGCGAAUAAGUAGGAUAUGAGAAUAGAUAGAGCUCAGAAGGACUACAUGAGGAUCACCCAUGUAAAGUCUUGAGGCUGCGUGGU [Prohibition 14 - Jieux - Exclusion NG 1] (Eterna round: R96, puzzle: Exclusion NG 1)
- apparent KD of MS2 coat protein (input ligand: FMN 200 uM): 10.8 nM
- apparent KD of MS2 coat protein [4]: 11.3 nM
- apparent KD of MS2 coat protein (input ligand: none): 13.7 nM

Sequence: AGCGCCAUCGUGAGAUGGCGUAUUACAUGAGGAUCACCCAUGUAGGAUAUCGAUUGCUUUGCAGUCGAGAAGGGCAUGUCCAAG [JL ENG3 3.80 Mod I] (Eterna round: R96, puzzle: Exclusion NG 3)
- apparent KD of MS2 coat protein (input ligand: FMN 200 uM): 45.4 nM
- apparent KD of MS2 coat protein [4]: 37.8 nM
- apparent KD of MS2 coat protein (input ligand: none): 35 nM

Sequence: AGCUAGUCAGGAUAUUCUAAUAAUUACAUGAGGAUCACCCAUGUGAAGGGACAAGGGUGUGAAGAAGGGACUAGCG [Omei Ex5 A3] (Eterna round: R97, puzzle: Exclusion 5)
- apparent KD of MS2 coat protein (input ligand: FMN 200 uM): 358 nM
- apparent KD of MS2 coat protein (input ligand: none): 529 nM

Sequence: AGCUAGUGCCGAGGAUAUACAUGAGGAUCACCCAUGUAGGCCAGUCGGUUUCUGACUGGCGAGAUGUAGAAGGCGGCGUUGGCA [JL ENG2 1.51] (Eterna round: R96, puzzle: Exclusion NG 2)
- apparent KD of MS2 coat protein (input ligand: FMN 200 uM): 49 nM
- apparent KD of MS2 coat protein [4]: 12.6 nM
- apparent KD of MS2 coat protein (input ligand: none): 15.6 nM

Sequence: AGCUGAGCAGGAUAUACAUGAGGAUCACCCAUGUAUUCUCGAAGGCGCCGCAUAGCAUGUAGAAGGGUUUAGAU [Eternabot (L1) Solution 20] (Eterna round: R97, puzzle: Exclusion 3)
- apparent KD of MS2 coat protein (input ligand: FMN 200 uM): 17 nM
- apparent KD of MS2 coat protein (input ligand: none): 23.2 nM

Sequence: AGCUGUGGCCGAGGAUAUCCACAUGAGGAUCACCCAUGUCGAUACCAGCGUAAGCUGGAUAUAAGGGAGAAGGCGGUCUCAGCA [Eli eng2 - 053] (Eterna round: R96, puzzle: Exclusion NG 2)
- apparent KD of MS2 coat protein (input ligand: FMN 200 uM): 6.2 nM
- apparent KD of MS2 coat protein [4]: 6.51 nM
- apparent KD of MS2 coat protein (input ligand: none): 10.5 nM

Sequence: AGCUGUGGCCGAGGAUAUCUAAAUUCUCAAAACGAAAUAUAAUCGAACAUGAGGAUCACCCAUGUAGAGAAGGCGGUCUCAGCA [Eli eng2 - 032] (Eterna round: R96, puzzle: Exclusion NG 2)
- apparent KD of MS2 coat protein [4]: 34.6 nM

Sequence: AGCUGUGGCCGAGGAUAUCUAAAUUCUUAAAACGAAAUAUAAUCGAACAUGAGGAUCACCCAUGUAGAGAAGGCGGUCUCAGCA [Eli eng2 - 059] (Eterna round: R96, puzzle: Exclusion NG 2)
- apparent KD of MS2 coat protein [4]: 13.4 nM

Sequence: AGCUGUGGCCGAGGAUAUCUACCUUCAAUAACCGAAAUAUAAUCGGACAUGAGGAUCACCCAUGUAGAGAAGGCGGUCUCAGCA [Eli eng2 - 086] (Eterna round: R96, puzzle: Exclusion NG 2)
- apparent KD of MS2 coat protein [4]: 10.9 nM

Sequence: AGCUGUGGCCGAGGAUAUCUGUUUCAUAAAACCGAAAUAUAAUCGGACAUGAGGAUCACCCAUGUAGAGAAGGCGGUCUCAGCA [Eli eng2 - 097] (Eterna round: R96, puzzle: Exclusion NG 2)
- apparent KD of MS2 coat protein [4]: 12 nM

Sequence: AGGAAUGAAGGAUAUACAUGAGGAUCACCCAUGUAAAAGGAAAGAGGUGAUGGAGAUAGUAGAAGGUCAAGAAG [JR_Exclusion3_Sub004] (puzzle: Exclusion 3)
- apparent KD of MS2 coat protein [1]: 94.2 nM
- apparent KD of MS2 coat protein [2]: 135 nM
- apparent KD of MS2 coat protein [3]: 204 nM

Sequence: AGGAGCAGAGGGAGAUCCAACAUGAGGAUCACCCAUGUCUCAUAAGCUUUUUGCUCAUCUUAUUGUACCUUGGUGCU [Mat - Sensor v3 - turn-off var 1 - JL Mod - D26] (puzzle: Sensor v3, turn-off variant 1)
- apparent KD of MS2 coat protein [1]: 35.7 nM
- apparent KD of MS2 coat protein [2]: 14.3 nM
- apparent KD of MS2 coat protein [3]: 37.9 nM

Sequence: AGGGAUAAAGGAUAUACAUGAGGAUCACCCAUGUUGAGGAAAGUGAGAUGAGGAGGAAGUAGAAGGUUAGGCGA [JR_Exclu3_Sub085] (puzzle: Exclusion 3)
- apparent KD of MS2 coat protein [1]: 37.2 nM
- apparent KD of MS2 coat protein [2]: 37.7 nM
- apparent KD of MS2 coat protein [3]: 47.4 nM

Sequence: AGGGCACGAGGAUAUGUGAAACUGGACUUGAGGAUCACCCAAGUCGUCUUCGUGUCCAAAGCAGAAGGCGUGGCCA [Zaesce] (Eterna round: R97, puzzle: Exclusion 5)
- apparent KD of MS2 coat protein (input ligand: FMN 200 uM): 13.8 nM
- apparent KD of MS2 coat protein (input ligand: none): 10.4 nM

Sequence: AGGUGACAUGAGGAUCACCCAUGUAAGGAUAUACGGUUAGUGGAGAGUUGGAGGAGAGGUAGAAGGUACGGAGC [JR_Exclu1_Sub060] (puzzle: Exclusion 1)
- apparent KD of MS2 coat protein [2]: 174 nM

Sequence: AGGUGUUUCGUAGGAUAUGAGGAUCACCCAUAGAAGGAUAUCGAAAGAGAAGGUCUGAGGAUUACCCAGAAGGACGGGACGUCA [pwkr exNG2 2xF5 2xFMN.10] (Eterna round: R96, puzzle: Exclusion NG 2)
- apparent KD of MS2 coat protein (input ligand: FMN 200 uM): 570 nM
- apparent KD of MS2 coat protein [4]: 103 nM
- apparent KD of MS2 coat protein (input ligand: none): 145 nM

Sequence: AGUAACAGAGGAUAUACUAUUUUAUGUAUUUAUUAUUUUAAACAUGAGGAUCACCCAUGUAGAAGGCUGAAUGA [JMF 97] (puzzle: Exclusion 2)
- apparent KD of MS2 coat protein [2]: 21.1 nM

Sequence: AGUAACAGAGGAUAUACUAUUUUAUGUGUUUAUUAUUUUGAACAUGAGGAUCACCCAUGUAGAAGGCUGAAUAA [JMF 91] (puzzle: Exclusion 2)
- apparent KD of MS2 coat protein [2]: 27.2 nM

Sequence: AGUAACCGUCACGAAAGUGAUGGUUACACAAGCAAAUGUACAUGAGGAUCACCCAUGUCCUCAUUUGCUCGUCUUGU [Sensor 3 - 48] (puzzle: Sensor v3, turn-off variant 2)
- apparent KD of MS2 coat protein [1]: 101 nM
- apparent KD of MS2 coat protein [2]: 398 nM
- apparent KD of MS2 coat protein [3]: 121 nM
